The results in this text go back to US20100129369A1 (Eli Lilly, published 2010).

Experiment [1] addresses T1, RON-ECD-Fc (human, UniProt Q04912 25-957).
T1 construct: extracellular domain; Bought reagent; not shown: Fc part of the bought fusion
T1 sequence (looked up): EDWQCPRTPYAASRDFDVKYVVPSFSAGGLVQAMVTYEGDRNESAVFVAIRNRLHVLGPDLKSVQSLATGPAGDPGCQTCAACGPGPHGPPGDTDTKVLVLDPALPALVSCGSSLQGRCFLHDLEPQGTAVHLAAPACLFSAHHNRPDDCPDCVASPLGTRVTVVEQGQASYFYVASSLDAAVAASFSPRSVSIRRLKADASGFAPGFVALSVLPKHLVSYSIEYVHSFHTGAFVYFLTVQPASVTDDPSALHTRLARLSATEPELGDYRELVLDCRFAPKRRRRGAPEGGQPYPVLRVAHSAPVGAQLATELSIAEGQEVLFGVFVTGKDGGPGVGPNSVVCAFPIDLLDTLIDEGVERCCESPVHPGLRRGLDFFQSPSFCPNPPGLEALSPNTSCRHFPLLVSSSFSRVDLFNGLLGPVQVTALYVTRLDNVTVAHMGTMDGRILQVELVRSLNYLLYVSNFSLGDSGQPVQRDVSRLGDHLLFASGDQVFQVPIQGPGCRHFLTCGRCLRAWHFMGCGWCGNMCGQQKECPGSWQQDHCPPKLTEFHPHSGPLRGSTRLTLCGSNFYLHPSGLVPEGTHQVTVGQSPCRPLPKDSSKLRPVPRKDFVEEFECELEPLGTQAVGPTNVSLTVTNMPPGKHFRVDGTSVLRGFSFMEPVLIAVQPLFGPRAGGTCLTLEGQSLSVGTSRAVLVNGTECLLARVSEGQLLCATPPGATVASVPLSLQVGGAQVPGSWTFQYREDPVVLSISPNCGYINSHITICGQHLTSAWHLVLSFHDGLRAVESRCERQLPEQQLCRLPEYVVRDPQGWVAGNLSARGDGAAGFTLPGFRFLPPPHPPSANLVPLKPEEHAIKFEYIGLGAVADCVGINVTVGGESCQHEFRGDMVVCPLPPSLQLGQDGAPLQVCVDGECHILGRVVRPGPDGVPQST
Description: ELISA, coated ECD-Fc, antibody 462.963 ng/mL. As for the experimental part:
(§1) Wells of 96-well EIA/RIA high binding plates (Costar, #2592) are coated with 100 μL of 1 μg/mL human c-Met extracellular domain (ECD)-Fc-Flis fusion (SEQ ID NO:72), RON-ECD-Fc (R&D Systems, #1947-MS), or PlexinA2-ECD-Fc (Abnova, Taipei, Taiwan #H00005362-P01) in coating buffer (BioFX Labs, # COAT-1000-01) overnight at 4° C. […] After the plates are washed, 100 μL/well of substrate solution (BioFx, #TMBW-1000-01) are added and the plates are incubated for 10 min. at room temperature. 100 μL/well of stop solution (BioFx, # LSTP-1000-01) are added to stop the reaction. The colorimetric signals are developed and read at 450 nm using a SpectraMax 190 plate reader (Molecular Devices, Sunnyvale, Calif.). c-Met antibody binding to c-Met, RON and PlexinA2 ECDs is proportional to color signal production.
(In general: ELISA stands for enzyme-linked immunosorbent assay.)

Experiment [2] has as its target T2, Human c-Met-Flis-Fc ECD (human).
T2 construct: also called human c-Met extracellular domain (ECD)-Fc-Flis fusion; Human cMet-ECD-Fc-Flis
Description: ELISA, coated ECD-Fc, antibody 462.963 ng/mL. How it is done: as §1

Experiment [3] addresses T3, PlexinA2-ECD-Fc (human, UniProt O75051 35-1237).
T3 construct: extracellular domain; Bought reagent
T3 sequence (looked up): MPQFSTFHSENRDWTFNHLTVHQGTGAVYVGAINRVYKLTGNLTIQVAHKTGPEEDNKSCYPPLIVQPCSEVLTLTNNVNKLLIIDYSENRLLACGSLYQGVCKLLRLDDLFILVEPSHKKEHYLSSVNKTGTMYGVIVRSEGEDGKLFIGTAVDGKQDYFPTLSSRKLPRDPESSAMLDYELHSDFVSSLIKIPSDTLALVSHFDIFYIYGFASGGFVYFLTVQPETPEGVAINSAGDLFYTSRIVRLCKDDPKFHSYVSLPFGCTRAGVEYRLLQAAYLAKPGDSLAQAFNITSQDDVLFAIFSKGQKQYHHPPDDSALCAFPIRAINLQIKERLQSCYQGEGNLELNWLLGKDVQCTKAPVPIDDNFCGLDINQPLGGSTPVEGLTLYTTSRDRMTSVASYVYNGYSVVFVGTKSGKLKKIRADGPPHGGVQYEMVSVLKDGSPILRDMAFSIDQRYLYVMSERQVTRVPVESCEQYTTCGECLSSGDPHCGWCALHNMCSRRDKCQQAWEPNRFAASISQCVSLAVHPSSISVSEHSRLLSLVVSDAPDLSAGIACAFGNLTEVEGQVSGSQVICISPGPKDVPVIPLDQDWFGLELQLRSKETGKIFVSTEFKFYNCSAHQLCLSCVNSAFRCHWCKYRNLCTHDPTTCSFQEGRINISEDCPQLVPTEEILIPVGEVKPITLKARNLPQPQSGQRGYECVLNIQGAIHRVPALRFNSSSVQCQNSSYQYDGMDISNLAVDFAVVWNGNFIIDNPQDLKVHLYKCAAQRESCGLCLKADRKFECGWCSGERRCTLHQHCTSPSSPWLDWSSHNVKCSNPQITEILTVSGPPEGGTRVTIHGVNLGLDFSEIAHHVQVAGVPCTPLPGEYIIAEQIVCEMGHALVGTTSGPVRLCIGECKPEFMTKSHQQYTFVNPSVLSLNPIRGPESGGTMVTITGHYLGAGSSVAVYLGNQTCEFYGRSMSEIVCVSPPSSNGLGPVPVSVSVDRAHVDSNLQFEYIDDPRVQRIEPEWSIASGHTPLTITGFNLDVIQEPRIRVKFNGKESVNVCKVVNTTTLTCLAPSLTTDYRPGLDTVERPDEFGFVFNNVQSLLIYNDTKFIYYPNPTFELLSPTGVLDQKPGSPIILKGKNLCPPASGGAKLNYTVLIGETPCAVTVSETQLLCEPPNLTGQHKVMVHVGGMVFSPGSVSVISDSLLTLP
The experiment in a line: ELISA, coated ECD-Fc, antibody 462.963 ng/mL. How it is done:
as §1

For experiment [4], the target named is T1, RON-ECD-Fc. The experiment in a line: ELISA, coated ECD-Fc, antibody 2.143 ng/mL. How it is done: as §1
Experiment [5] concerns the target T2, Human c-Met-Flis-Fc ECD. Description: ELISA, coated ECD-Fc, antibody 2.143 ng/mL. As for the experimental part:
as §1

The target in experiment [6] is T3, PlexinA2-ECD-Fc. The experiment in a line: ELISA, coated ECD-Fc, antibody 2.143 ng/mL. How it is done: as §1

T2 sequence (chain, as listed by the source limits assumed): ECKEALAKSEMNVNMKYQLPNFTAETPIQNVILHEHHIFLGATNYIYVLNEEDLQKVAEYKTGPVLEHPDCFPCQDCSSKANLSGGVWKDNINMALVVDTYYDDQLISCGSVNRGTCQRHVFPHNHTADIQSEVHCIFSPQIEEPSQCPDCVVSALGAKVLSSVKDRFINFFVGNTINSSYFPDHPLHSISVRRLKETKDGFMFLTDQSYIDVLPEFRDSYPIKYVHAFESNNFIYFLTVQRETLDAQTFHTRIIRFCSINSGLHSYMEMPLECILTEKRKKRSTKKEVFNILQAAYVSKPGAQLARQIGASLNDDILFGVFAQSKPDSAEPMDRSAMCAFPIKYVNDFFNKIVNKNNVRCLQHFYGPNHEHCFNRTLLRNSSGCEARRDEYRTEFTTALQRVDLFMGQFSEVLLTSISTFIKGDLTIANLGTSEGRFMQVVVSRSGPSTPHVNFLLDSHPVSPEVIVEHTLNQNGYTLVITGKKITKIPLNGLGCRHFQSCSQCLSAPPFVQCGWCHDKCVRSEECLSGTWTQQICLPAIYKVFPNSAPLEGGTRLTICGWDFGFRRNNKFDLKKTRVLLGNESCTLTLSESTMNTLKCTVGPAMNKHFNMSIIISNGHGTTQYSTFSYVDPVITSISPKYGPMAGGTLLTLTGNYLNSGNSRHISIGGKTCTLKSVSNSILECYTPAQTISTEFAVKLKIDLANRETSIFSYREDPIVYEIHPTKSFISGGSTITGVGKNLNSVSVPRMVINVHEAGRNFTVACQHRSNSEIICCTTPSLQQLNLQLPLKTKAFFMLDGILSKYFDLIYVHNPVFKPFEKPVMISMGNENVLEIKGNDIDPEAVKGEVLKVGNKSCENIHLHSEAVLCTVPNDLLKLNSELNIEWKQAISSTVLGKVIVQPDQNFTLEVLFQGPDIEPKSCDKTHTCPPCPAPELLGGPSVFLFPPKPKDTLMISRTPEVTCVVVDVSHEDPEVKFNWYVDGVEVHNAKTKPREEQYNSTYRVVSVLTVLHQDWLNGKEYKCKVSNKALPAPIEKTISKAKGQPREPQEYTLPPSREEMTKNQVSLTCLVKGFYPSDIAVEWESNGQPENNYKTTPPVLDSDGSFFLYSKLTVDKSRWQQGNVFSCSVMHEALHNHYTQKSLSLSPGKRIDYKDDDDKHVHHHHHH

B1: C8-6 (antibody, human IgG2, kappa, V domains shown)
VH: QVQLVQSGAEVKKPGASVKVSCKASGYTFTDYYMHWVRQAPGQGLEWMGRVNPNRGGTTYNQKFEGRVTMTTDTSTSTAYMELRSLRSDDTAVYYCARTNWLDYWGQGTTVTVSS
VL: DIQMTQSPSSLSASVGDRVTITCSVSSSVSSIYLHWYQQKPGKAPKLLIYSTSNLASGVPSRFSGSGSGTDFTLTISSLQPEDFATYYCIQYSGYPLTFGGGTKVEIKR
notes: Called IgG4, kappa; also called Mab C8-6
Consider B1, for which the “Average A450 nm” value in the experiment with RON-ECD-Fc [1] stood at 0.088 A450 nm; in the experiment with Human c-Met-Flis-Fc ECD [2], 4 A450 nm; in the experiment with PlexinA2-ECD-Fc [3], 0.086 A450 nm; with RON-ECD-Fc [4], 0.098 A450 nm; in the experiment with Human c-Met-Flis-Fc ECD [5], 2.42 A450 nm; with PlexinA2-ECD-Fc [6], 0.106 A450 nm.
